Data reported in a protein production outcome set (Wang et al. 2014).

Assay: label from the status in PepcDB records

Sequence | protein production
MRNSKSLKLTIMGIGIALNIIGAFIALNLRLPIYLDSIGTIMVGFVLGPVYGMATGVLGSVVSGITFDIYSLYFAPVQIFTGFFAGYFYEKGLMKGKKLFLSVFVMTLFVSFTGACLTAYIFGGITSSGSSYIIVILNNLGVNPVVSAFITQFLTDYCDKLVAVLIMLQVVVRLPKNILLRVQNN | failed
KPIPLAVIVVLGCFALGLGGIIGFVHKGEDYQAYQKLQWHTLAPEKIAPLVAQGYTVFVDITSDWCSICQTNKAEVTHREQVVNALMADDIILMQGNWSEADNTIAGYMQYEGIPGTPYNKIYGPRNPNGIVLPSKLTIEAVINGLAQAKAL | failed
MSASHFLTIIKPASLAVLLLLAAGFWVLHGFIMPIAWAVVLAFTVWPWYEHVYQRAPCWMRGGWLPLAMTLLMMVLLMVPATFGVLVLGHEVQMLHRLLIKVQSSGIGAPDWLIQLPWVGGWIKETWSETFGNPETIKNALNALGMGTVFSYTRDLAAQVLHRFMSGFVTLLALFFIFRDGHGLGRQILDRSVRLFGSAGARYARHAVTAVRGTVNGMLLVGIGKGVVLGLGYWAVGLSQPVLLGTLTAVVALVPFAAKLVFGAASIYLIVQGHAMAGIVLVVYGFIITLIADNYVRPTLIGGAANIPFLPTLLGIFGGVEAMGFVGLFIGPTVMAILISLWRDWNDETRLPSA | failed
MDSYSITNVKYLDPTELHRWMQEGHTTTLREPFQVVDVRGSDYMGGHIKDGWHYAYSRLKQDPEYLRELKHRLLEKQADGRGALNVIFHCMLSQQRGPSAAMLLLRSLDTAELSRCRLWVLRGGFSRWQSVYGDDESVTAGYLPDLWR | not failed
MPHDDHEHHHAADSAGAQGRLVWALILTGGFVVFEALAGWKANSLALLTDAVHNLSDVLALGLSWYAMRLTAQPAHAAKTFGYHRAGILAALANSAGLVGVALYILYDAYVRLLSPAPVQADILIGVGGAALLVNAFTAWLVHHGSHDDLNMRSAFLHLLGDVVSTLGAIAAGVAIRYTGLYWLDPAVSVLIALLILWNAKGLMAEVMDILLESTPRDVDMGSMVRDMMQVEGVHGVHHLHVWSISRQLRMLSAHIVTDDIRLSEGEGLQKRVTRLLAQRYGIAHTTLQLESESCQPDSLYCDISRPNHRYHGE | failed
MQAIAIDQFSEPEETQVEQVENPDRNEAGYEVCNQSGENLSVAIAYFDTSIDSYRSEGWWNLDQSKCQFFPNLLDSVDEVYVFAESDQTLWSGDFPFCMQEDAFEYPDANRDRCPSPAYSKGFLKVEVGDAKTWTTNLTPSQLEHHHHHH | failed
MTDYGEEQRNELEALESIYPDSFTVLSENPPSFTITVTSEAGENDETVQTTLKFTYSEKYPDEAPLYEIFSQENLEDNDVSDILKLLALQAEENLGMVMIFTLVTAVQEKLNEIVDQIKTR | not failed
MRDATYPQLWAAVRAARKAGRTLESVKPAADQFQVKHNGDIVTEADRTVEETILAELSGQFPVHTVVSEESAPEFTTKPRWIIDPIDGTTNFLNGIPHYSISIAFEGAGEPDVGIVYHVPSETMYTAIEGGGAYANGQPLSLSATTELSEALIVTGFDTASMQAQEYDHFRTILNVTQGVRRFGSAAGELAMVAAGQFDAFFERQLSVWDTAAGVKIVEEAGGEVTRIKALDGKNSEMVLASNEAIHQDLVALVSAGTVPKMDGQ | failed
MKALTVNKTIFILVIAASLLLGAAVGYIAHSLTAGGGGVVVTGSKAVSTGTSIGVYLTIKNNTNTTSCIVGADIAESVSGKVVVDIHKTVEEGGRVVMMPAGPICLGPGETLEMRQGPGSYHVMIMGDRSAIEKITEDGVVEIKVLVEQQVDAPITGP | failed
MQIDHGSRQPYYAQIVTGIEQDIAHGVLQSGEQLPSVREMARQHLLNPNTVSKAYKRLETQQIIETVPGKGTYVKVVDSTLFRQELREQFTQIVRLAGQRGVSIAELHGWLDQMGEK | failed
MTDTLLVTSTNAGTGKTAVSLALARLAGDRDRTVGYMKPKGTRLQSNVGKTLDADPLLARDLLDLDAEIHDLEPVVYSPTFIQGAVRGREDSANLADRVRDAYDELATDRDVMLVEGAGTPTTGGIVDLTDGDIAALLDARAIVVADYTGPSDVDDVLAAADALGDRCAGVVFNAVADAVYDDVESEVTPFLESQGIPVLGVLPVERDLAGVTVDDLASELGATVLTEDTATTDAIVERFLVGAMSSESALSHFRRTKDAAVITGGDRADIQTAALDAPGVQCLVLTGGHRPSGAVLGKATDAGVPVLSVDADTLTTLERAEELVRDGRVRDEHTVDVMQRLLHDHADTDRLLD | failed
MNKLEERSQHRKSRFRFLVISTFWRVLLLLKNDAEPLFHLGNIHYAYGHKASAMNYWKEAVSKNREHEKAWHNLVQCAVIQEEWEQAAEGLTILCRNHPTRFEYMSLYTHALKKLGKKEELEEWYLSHINGPHHEWAIEGLGMLYIRTRREIDAFKLLSPFVRKFPNRPVGLKILGISSIRTNQYEAGLTFLEKSLELKEDKEVKSLVDRVKRLKKVRGGNR | failed
MTDTPVPSEATASGWRRALPVIISLAILAMALHALSSQFTDHGYRQIRQAFRALGAGQIALTLLLGLSSYACLVGFDWVGLKRTGKRLHPARVGITAFMAHAVGQTLGFAALTGGAVRLRGYGSVGLTLAEIGQVVLMSTLGFIFGAWVLLGIALMLEPEAAARALPIAAEGIRIAGIALLAGYLAMLVLVGRHGREFGIRSHRFWLPDRTTVLGVTALSVVELGLAAAAFYVLLPPDPGTGYFGFIGIWLVAVVAGLISTVPAGLGVFEWSLLKLLPHVTPAAVLAAALAYRVTYYIVPLLISVAMAAATGLRAPVRASASTARTVWKTLRPWLPQILALAVFAVGAALVIDGTLPTPRARQEVAPLPLIETSHLLVSLGGMLLLLIGQGLQRRSHSAWVLALGVCVLLPPLSLLRGSHISVSLSAALAAVALWAARREFYRQGALLDEAWSWRWLSNLGLVLVATFWLLFFVYSHVEYSNDLWWQFATSANAPRALRALLILCVGVILFGTARLLRGGRRPMPPADAQALQALAPVLASSADTQACLALTGDKAFLRDEKGLGFVMMQRYGGSLISMGDPVGPPEVARALIWRFREEADHMGLRPVFYQVGEKYWQTYLDMGLTLVKLGEEAIVPLEGFTLEGRDRADLRQAWNRGKRGGLSFRMLQPEQVDAVMAELGEVSEQWLDEKAGEEKGFSLGSFDPDYLRRFPMAVAEAEGKIVAFANVWCAPAGGELSVDLMRHSAQAPKGTMDFLFIELFLWGHANGYTRFSLGMAPLSGLAEHRLAGRWNRFASLVARHGERFYGFSGLRRFKSKFAPTWRPRYLVAPGGMHLPAALLDVTRLISVDPGRQD | failed
MAKNYDQLAKTIIKDVGGKDNVNSVVHCATRLRFKLKDEKKADDDALKNTDGVVTVVKAGGQYQVVIGNEVADVYDAVLKEGGFSGGGEVPDDYSEDDNSSFVDKAVALISGIFTDILAPLSAGGIIKGLVVLAAAMGWLSTSSGAYQILYAIGDSIFYFLPIFLGVTAARRFHMNQFIGLAIGATLTYPTMVQLAASKTVLGTLFAGTPFASQIHTTFFGIPVITMNYTSTVLPVLFAVWFASIIEHWSKKWIPSVVQMFLVPVVTMIITLPIAFIVIGPVMTWVGNAIGAVMSGIYHFSPIIAGLLLGGLWQVLVIFGVHWGIVAVTTADLAALGYDPILGMTCMVCYAQIGVVLAIIKQTKDKKLKENATGAFFSGLFGVTEPAIYGITLPRKRPFVLSCIAGAVSGAIIGAFHSVLYILPSMGFFAIPAYINPKGGSMTQIIGVIIAGVVAFIVGFALQMLFGKKSVDAKYDKKQTEKVEVNETLQTTPDVATATLASPENGQIMPLSEVKDDVFSSGAMGKGIAIEPSDGVLHAPADGKIIMTFKTGHAIGMKTKNGAEILMHIGMDTANLQGKGFDTLVEKDQKVKAGDPLIKFDIDLIKKAGYPVTTPMVVTNSQDFDDIKQIVKGEVKVGQAVLELEAPEAKDVTTSVNGQVQLN | failed
MKLLREMLIVVFIYFLGEFISKSFIHSVPGNIIGMLILLVLLCTKVVKVESIDCVAQFFLDHLAFFFVPAGVGLMTSVGLLEGNVLKLLFICIASTFVVIGVTGLVVQALIRRKEKKLLGDEVNE | failed
MSLTKIDAYAHILPAKYYQKMLSVEPNIPNMFPFIKIKTLMDLDERLTKWPDQNTKQVISLANISPEDFTDSKTSAELCQSANEELSNLVDQHPGKFAGAVAILPMNNIESACKVISSIKDDENLVGAQIFTRHLGKSIADKEFRPVLAQAAKLHVPLWMHPVFDARKPDNNLVFSWEYELSQAMLQLVQSDLFQDYPNLKILVHHAGAMVPFFSGRIDHILDEKHAQDFKKFYVDTAILGNTPALQLAIDYYGIDHVLFGTDAPFAVMPSGADQIITQAINDLTISDKDKQKIFHDNYYSLIKEGHHHHHH | not failed
QNHFHVFVGDLSPQITTEDIKAAFAPFGRISDARVVKDMATGKSKGYGFVSFFNKWDAENAIQQMGGQWLGGRQIRTNWATRKPPAPKSTYES | failed
EIESRELADIPVLHAYPVGQKDTPLPCVIFYHGFTSSSLVYSYFAVALAQAGLRVIMPDAPDHGSRFSGDAARRLNQFWQILLQSMQEFTTLRAAIAEENWLRDDRLAVGGASMGAMTALGITARHPTIKCTASMMGSGYFTSLARSLFPPLIPETAAQQNEFNNIVAPLAEWEATNHLEQLGDRPLLLWHGLDDDVVPADESLRLQQALSETGRDKLLTCSWQPGVRHRITPEALDAAVTFFLQHL | failed
MAGAMRKMAVYLGLVEDDGYDGRGFDPDDDFEPELDPEPERDHRRHEPAHQSHGAHQSQRDEEVRVVQPPAQREPMPRAASLAAESSRPARIAPVASITQERASLEKSAPVIMPKVVSEREPYRITTLHPRTYNEARTIGEHFREGTPVIMNLTEMDDTDAKRLVDFAAGLVFGLHGSIERVTQKVFLLSPANVDVTAEDKARIAEGGFFNQSLEHHHHHH | failed
MVLKAFFPTCCVSTDSGLLVGRWVPEQSSAVVLAVLHFPFIPIQVKQLLAQVRQASQVGVAVLGTWCHCRQEPEESLGRFLESLGAVFPHEPWLRLCRERGGTFWSCEATHRQAPTAPGAPGEDQVMLIFYDQRQVLLSQLHLPTVLPDRQAGATTASTGGLAAVFDTVARSEVLFRSDRFDEGPVRLSHWQSEGVEASILAELARRASGPICLLLASLLSLVSAVSACRVFKLWPLSFLGSKLSTCEQLRHRLEHLTLIFSTRKAENPAQLMRKANTVASVLLDVALGLMLLSWLHGRSRIGHLADALVPVADHVAEELQHLLQWLMGAPAGLKMNRALDQVLGRFFLYHIHLWISYIHLMSPFVEHILWHVGLSACLGLTVALSLLSDIIALLTFHIYCFYVYGARLYCLKIHGLSSLWRLFRGKKWNVLRQRVDSCSYDLDQLFIGTLLFTILLFLLPTTALYYLVFTLLRLLVVAVQGLIHLLVDLINSLPLYSLGLRLCRPYRLADKPTALQPRGAHLPPPQLWLPPQALLGRPVPQAVPWGAHLPLEAERGQAGLRELLARLAPPHGHSQPSALPGWHQLSWRMSCALWTLLCAPEHGRPCYHTLGLEVIGSEQMWGWPARLAALHHWHCLPWDPLPTCCGHHGGEHSNPRCPEHCPMPTLCTQVQRVRPPQQPQVEGWSPWGLPSGSALAVGVEGPCQDEPPSPRHPLAPSAEQHPASGGLKQSLTPVPSGPGPSLPEPHGVYLRMFPGEVAL | failed
MAKGNKIPLTFHTYQDAATGTEVVRLTPPDVICHRNYFYQKCFFNDGSKLLFGAAFDGPWNYYLLDLKEQNATQLTEGKGDNTFGGFLSPNDDALYYVKNTRNLMRVDLTTLEEKTIYQVPDDWVGYGTWVANSDCTKMVGIEIKKEDWKPLTDWKKFQEFYFTNPCCRLIRVDLVTGEAETILQENQWLGHPIYRPGDDNTVAFCHEGPHDLVDARMWFINEDGTNMRKVKEHAEGESCTHEFWVPDGSAMIYVSYLKDDTNRYIRSIDPVTLEDRQLRVMPPCSHLMSNYDGTLLVGDGSDAPVDVQDDGGYKIENDPFLYVFNLKTGKEHRIAQHNTSWEVLEGDRQVTHPHPSFTPDNKQVLFTSDVDGKPALYLAKVPDSVWNLEHHHHHH | not failed
